According to article PMC11764276:

Target: 2196 HC + alphamod1 LC (human)
Experiment: SPR; Biacore 8k; antibody captured on a Series S Protein A chip to ~200 RU or greater; 4X serially diluted RBD starting at 1,000 nM flowed at 50 uL/min, 120 s contact, 600 s dissociation; HBS-EP+ buffer; 1:1 Langmuir fitting, steady state analysis, or two-state reaction fitting

2196 HC + alphamod1 LC (human), sequence (heavy, as listed by the source, chain 1 of 2): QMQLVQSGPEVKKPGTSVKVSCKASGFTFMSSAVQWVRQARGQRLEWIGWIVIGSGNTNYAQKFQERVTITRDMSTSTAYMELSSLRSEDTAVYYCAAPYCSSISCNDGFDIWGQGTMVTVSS
2196 HC + alphamod1 LC (human), sequence (light, as listed by the source, chain 2 of 2): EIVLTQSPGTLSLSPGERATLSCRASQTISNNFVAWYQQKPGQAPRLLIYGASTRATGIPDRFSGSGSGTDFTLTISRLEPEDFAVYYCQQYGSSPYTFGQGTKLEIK

RBD (residues 334–527 of the SARS-CoV-2 spike glycoprotein) (from UniProt P0DTC2 334-527) (domain or fragment)
Kd: 99.4 nM
